Assay results: US10287317B2, “Proprotein convertase subtilisin kexin type 9 (PCSK9) allosteric binding ligands to modulate serum low density lipoprotein (LDL) levels” (SRX Cardio, LLC, priority 2013, dated 2019)
Where no end group is shown, it is not given here.

Columns and labels:
[1] = target: T1, PCSK9-WT protein (Homo sapiens, UniProt Q8NBP7); test: Cellular diI-LDL uptake in HuH7 cells with PCSK9-WT; assay type: cell-based; conditions: HuH7, 1.0 μg/ml PCSK9-WT, 100 uM peptide (FIG. 2)
T1 construct: V5
T1 sequence (Q8NBP7 153-692): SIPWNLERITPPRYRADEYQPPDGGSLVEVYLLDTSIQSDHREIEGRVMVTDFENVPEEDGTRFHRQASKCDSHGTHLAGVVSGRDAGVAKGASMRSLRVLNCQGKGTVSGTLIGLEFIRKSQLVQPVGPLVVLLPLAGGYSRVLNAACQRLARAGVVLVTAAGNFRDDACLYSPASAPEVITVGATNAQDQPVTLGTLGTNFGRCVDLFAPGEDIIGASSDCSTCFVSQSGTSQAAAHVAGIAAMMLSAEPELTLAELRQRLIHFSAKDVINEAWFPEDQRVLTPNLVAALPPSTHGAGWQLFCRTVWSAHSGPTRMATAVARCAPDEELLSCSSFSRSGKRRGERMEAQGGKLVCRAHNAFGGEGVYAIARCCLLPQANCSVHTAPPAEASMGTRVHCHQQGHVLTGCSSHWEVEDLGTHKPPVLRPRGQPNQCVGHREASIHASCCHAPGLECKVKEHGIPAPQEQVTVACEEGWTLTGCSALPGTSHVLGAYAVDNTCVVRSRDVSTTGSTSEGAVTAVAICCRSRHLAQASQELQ
Protocol: HuH7 cells were incubated in a 96-well plate for a total of 20 h in the absence (Cnt) or presence of 1.0 μg/ml PCSK9-WT protein alone (WT) or mixed with 100 uM of various SRX peptides. After 16 h, dil-LDL (5 ug/ml) was added to the incubation mixtures. After 4 h, fluorescence was measured (Ex: 520 nm/Em: 575 nm; cutoff: 550 nm). Dil-LDL uptake is calculated as RFU corrected for the number of cells.
LDL internalization was measured by uptake of a fluorescently tagged LDL molecule (diI-LDL) in the absence of exogenous PCSK9 (Cnt), in the presence of exogenous PCSK9 (normal PCSK9=WT, D374Y mutant PCSK9=DY), or in the presence of PCSK9 and a tested peptide (indicated as SRX##, or SRX if a single peptide results is shown in a graph).
Cells, such as HepG2, HuH7, FL83B or a cell line transfected with a short-hairpin PCSK9 knockdown sequence such as HepG2/shPCSK9, HuH7/shPCSK9, FL83B/shPCSK9, were seeded at 2×10^4 cells/well in a 96-well plate and cultured at 37 degC in RPMI+10% FBS. After approximately 24 hours, the cell media was aspirated off and replaced with RPMI+3-5 mg/mL LPDS (Lipoprotein Deficient Serum, Millipore) media for further experimentation. Benjannet et al., “Effects of the prosegment and pH on the activity of PCSK9: evidence for additional processing events” J Biol Chem. 285(52): 40965-40978 (2010).
Peptide activity was assessed by culturing cells with: i) no SRX peptide/PCSK9 protein complex (control, Cnt); ii) PCSK9 protein; and iii) SRX peptide/PCSK9 complex. Various permutations of these experimental conditions were also used, including: i) the addition of wild type PCSK9 (WT); ii) a mutant PCSK9 (e.g., D374Y mutant PCSK9, DY); iii) various SRX peptides and/or PCSK9 at the same concentration and/or combinations; iv) various SRX peptides and/or PCSK9 at different concentrations and/or combinations; v) the use of different cells, as mentioned above, with or without a transfected short-hairpin sequence; vi) a pre-incubation of the PCSK9 and SRX peptide (e.g., 1, hour, 2 hours, 3 hours, 4 hours etc.); vii) various temperatures including, but not limited to, body temperature (e.g., 37° C.), supraphysiologic temperature (e.g., 39° C.); and viii) with/without agitation (e.g., shaker or gentle periodic vortexing).
Cells were cultured using one of the combinations of conditions described in the preceding paragraph for 16 hours. After 16 hours, a quantity of diI-LDL (Low density lipoprotein coupled with 1,1′-dioctadecyl-3,3,3′,3′-tetramethylindocarbocyanine perchlorate) needed to bring the media concentration to 5 ug/mL of diI-LDL was added to the culture well and cells continued to be cultured under these new conditions for 4 additional hours. At the end of the 4-hour incubation period (20 total hours of cell culture), the cellular uptake was halted with the addition of 4% formaldehyde in 10 uM Hoechst 33342 in a solvent such as deionized autoclaved water or PBS, and specimens were incubated at 20° C. for 20 minutes. Cell specimens were rinsed twice with PBS and then fluorescence measured with excitation at 360 nm and emission detected at 460 nm to measure DNA content. Cell specimens were then be incubated with a 0.1% SDS in a 0.1 N NaOH solution while being shaken for 10 minutes. Fluorescence of the diI-LDL in the specimens were quantified using excitation at 530 nm and resulting emission at 580 nm.
Fluorescence measurements of diI-LDLR were normalized to estimated cell numbers, determined from the Hoechst fluorescence. Data was analyzed for the different experimental conditions and reported as percentage relative fluorescence units (RFU) of the Cnt specimen. Percent inhibition was calculated as the difference in RFU of a peptide exposed specimen to the RFU of PCSK9-no peptide, divided by the RFU difference in PCSK9-no peptide to RFU of Cnt specimen, also expressed as [(SRX:RFU)−(PCSK9-no peptide:RFU)]/[(PCSK9-no peptide:RFU)−(Cnt:RFU)]×100.

[2] = target: PCSK9 GOF-D374Y protein (Homo sapiens, UniProt Q8NBP7, D374Y); test: Cellular diI-LDL uptake in HepG2 cells with PCSK9 GOF-D374Y; assay type: cell-based
PCSK9 GOF-D374Y protein, sequence (Q8NBP7 153-692 D374Y): as the sequence (Q8NBP7 153-692) above, with D222Y counted along it
Protocol: […] After 16 h, dil-LDL (5 ug/ml) was added to the incubation mixtures. After 4 h, fluorescence was measured (Ex: 520 nm/Em: 575 nm; cutoff: 550 nm). Dil-LDL uptake is calculated as RFU corrected for the number of cells.
(§1) After 16 h, dil-LDL (5 ug/ml) was added to the incubation mixtures. After 4 h, fluorescence was measured (Ex: 520 nm/Em: 575 nm; cutoff: 550 nm). Dil-LDL uptake is calculated as RFU corrected for the number of cells. The PCSK9 and −/+SRX55 [SEQ ID NO: 2] mixtures were pre-incubated for 3 hrs at 37 C prior to addition to the cells.
(§2) LDL internalization was measured by uptake of a fluorescently tagged LDL molecule (diI-LDL) in the absence of exogenous PCSK9 (Cnt), in the presence of exogenous PCSK9 (normal PCSK9=WT, D374Y mutant PCSK9=DY), or in the presence of PCSK9 and a tested peptide (indicated as SRX##, or SRX if a single peptide results is shown in a graph). […]
(§3) Peptide activity was assessed by culturing cells with: i) no SRX peptide/PCSK9 protein complex (control, Cnt); ii) PCSK9 protein; and iii) SRX peptide/PCSK9 complex. […]
Cells were cultured using one of the combinations of conditions described in the preceding paragraph for 16 hours. […] Cell specimens were rinsed twice with PBS and then fluorescence measured with excitation at 360 nm and emission detected at 460 nm to measure DNA content. […]

[3] = target: normal PCSK9 (WT) (Homo sapiens, UniProt Q8NBP7); test: Cellular diI-LDL uptake in FL-83B cells with WT PCSK9; assay type: cell-based, mouse; conditions: FL83B, WT 1.2 ug/ml, pre-incubated 3 hrs at 37 C, dose dependent manner (FIG. 7)
normal PCSK9 (WT), sequence (Q8NBP7 153-692): as the sequence (Q8NBP7 153-692) above
Protocol: as §1, §2, §3
Cells were cultured using one of the combinations of conditions described in the preceding paragraph for 16 hours. After 16 hours, a quantity of diI-LDL (Low density lipoprotein coupled with 1,1′-dioctadecyl-3,3,3′,3′-tetramethylindocarbocyanine perchlorate) needed to bring the media concentration to 5 ug/mL of diI-LDL was added to the culture well and cells continued to be cultured under these new conditions for 4 additional hours. […] Fluorescence of the diI-LDL in the specimens were quantified using excitation at 530 nm and resulting emission at 580 nm. […]

Measured: LDL internalization (dil-LDL % uptake vs Cnt)

Val-Tyr-Val-Arg-Phe-Trp (VYVRFW; not fully specified (C-terminus); printed as Val-Tyr-Val-Arg-Phe-Trp) [Compound 1]
positively modulated (increased): [1] | [2]; HepG2, 2 μg/ml PCSK9 GOF-D374Y, dose dependent manner (FIG. 5) | [2]; HepG2, D374Y 0.6 ug/ml, pre-incubated 3 hrs at 37 C, dose dependent manner (FIG. 6) | [3]
